From US20110076279A1 (SCHERING, published 2011)
Positions count from the first letter of the chain named.

T1: hVEGF121-G92A (human, UniProt P15692-9 27-147, G92A)
T1 construct: Transiently expressed in CHO-K1 cells; culture supernatant used
T1 sequence (looked up): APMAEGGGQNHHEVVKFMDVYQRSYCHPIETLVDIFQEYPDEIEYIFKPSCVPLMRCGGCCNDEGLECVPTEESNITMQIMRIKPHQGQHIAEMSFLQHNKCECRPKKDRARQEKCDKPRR

T2: wild-type hVEGF121 (human, UniProt P15692-9 27-147)
T2 construct: Isoform VEGF121 of P15692
T2 sequence (looked up): T1 sequence (looked up) with A92G

T3: hVEGF121-M81A (human, UniProt P15692-9 27-147)
T3 construct: Transiently expressed in CHO-K1 cells; culture supernatant used
T3 sequence (looked up): T1 sequence (looked up) with M81A, A92G

T4: hVEGF121-G88S (human, UniProt P15692-9 27-147, G88S)
T4 construct: Transiently expressed in CHO-K1 cells; culture supernatant used
T4 sequence (looked up): T1 sequence (looked up) with G88S, A92G

T5: hVEGF121-Q89A (human, UniProt P15692-9 27-147, Q89A)
T5 construct: Transiently expressed in CHO-K1 cells; culture supernatant used
T5 sequence (looked up): T1 sequence (looked up) with Q89A, A92G

T6: murine VEGF165 (mVEGF165) (murine, UniProt Q00731-2 27-190)
T6 construct: also called rMu-VEGF165; recombinant mVEGF165
T6 sequence (looked up): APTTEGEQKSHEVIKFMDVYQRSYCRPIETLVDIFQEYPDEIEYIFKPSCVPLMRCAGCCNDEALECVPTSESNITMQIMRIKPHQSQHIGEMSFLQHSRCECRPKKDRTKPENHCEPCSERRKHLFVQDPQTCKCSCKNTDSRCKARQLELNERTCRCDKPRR

B1: XPA.10.072 scFv (scFv, part only; not given: linker, domain order, tags, V domains shown, not shown: another chain or arm of the molecule; large carriers; small tags and cut ends)
VH: RLQLVQSGAEVRKPGASVKVSCKASGYSFTGHYIHWARQAPGQGLEWMGWINPYSGGTNFPREFQGRVTMTRDTSVNTVYMELTRLTSDDTSVYYCARDHRIVGGLDYWGQGTLVTVSS
VL: QSVLTQPPSASGTPGQRVTISCSGSSSNLGSNFVYWYQQLPGTAPKLLIYRNHQRPSGVPDRFSGSKSGTSASLAISGLRSEDEADYYCASWDDSLRVVVFGGGTKLTVL
B2: XPA.10.064 IgG2 (antibody, V domains shown)
VH: B1 VH with R1E, L2V, A37V
VL: B1 VL with Q1S, S2Y, L29I, S31I, F33Y, H53D, S91T, R97S, V98G, L107V
notes: Fully human antibody from an scFv phage library, converted to IgG2 (gamma-2 heavy chain constant region); also called VPA.10.064
B3: XPA.10.064 scFv-Fc (Fc fusion, not shown: a dimerising Fc or GST; small tags and cut ends)
VH: B1 VH with R1E, L2V, A37V
VL: B1 VL with Q1S, S2Y, L29I, S31I, F33Y, H53D, S91T, R97S, V98G, L107V
B4: XPA.10.064 scFv (scFv, part only; not given: linker, domain order, tags, V domains shown, not shown: another chain or arm of the molecule; large carriers; small tags and cut ends)
VH: B1 VH with R1E, L2V, A37V
VL: B1 VL with Q1S, S2Y, L29I, S31I, F33Y, H53D, S91T, R97S, V98G, L107V
B5: XPA.10.072 IgG2 (antibody, V domains shown)
VH: B1 VH
VL: B1 VL
notes: Fully human antibody from an scFv phage library, converted to IgG2 (gamma-2 heavy chain constant region); also called XPA.072; VPA.10.072
B6: XPA.10.072 scFv-Fc (Fc fusion, not shown: a dimerising Fc or GST; small tags and cut ends)
VH: B1 VH
VL: B1 VL

How the values were obtained:
human VEGF165 (hVEGF165) [1] = molecular target: T7, human VEGF165 (hVEGF165) (human, UniProt P15692 207-395); test: DELFIA competition, biotinylated hVEGF165 0.5 µg/ml plus periplasmic scFv on VEGF-R1 or VEGF-R2 coated plate
human VEGF165 (hVEGF165) [2] = molecular target: T7, human VEGF165 (hVEGF165); test: Biacore
human VEGF165 (hVEGF165) [3] = molecular target: T7, human VEGF165 (hVEGF165); test: cell-based or functional assay
human VEGF165 (hVEGF165) [4] = molecular target: T7, human VEGF165 (hVEGF165); test: Biacore, IgG2 (summary table)
Description: Dilution and running buffer for these experiments was HBS-EP (Biacore) with 1:50 dilution of Chemiblocker® (Chemicon). […] Antibody concentrations were approximately 0.5 μg/ml. hVEGF₁₆₅ expressed from sf21 cells was injected over five minutes at 30 μl/minute using the Kinject feature with 15 minute dissociation over fc1 and 2. […] Regenerations were performed with two injections of 100 mM HCl at 50 μl/minutes for twelve seconds each. Data was processed in Scrubber2 and fit by a 1:1 Langmuir interaction model after double referencing of the control flow cell and blank injections.

hVEGF121-G92A = molecular target: T1, hVEGF121-G92A; test: sandwich ELISA, antibody coated 5 ug/ml
Description: (§1) The plate was blocked with 30% ChemiBlock™ reagent (Millipore) in PBS for one hour at room temperature, and 30, 60, or 100 μl of CHO-K1 culture supernatant for each mutant, or 1 μg/ml of wild-type hVEGF₁₂₁, recombinant hVEGF₁₆₅, or recombinant mVEGF₁₆₅, was added to appropriate wells. After one hour of incubation, the plate was washed and incubated with a biotinylated goat polyclonal anti-VEGF antibody for one hour at room temperature. Detection was performed with HRP-conjugated streptavidin, followed by TMB chromogenic substrate (Calbiochem) using manufacturer protocol.

human VEGF165 (hVEGF165) [5] = molecular target: T7, human VEGF165 (hVEGF165); test: sandwich ELISA, antibody coated 5 ug/ml
Description: as §1

wild-type hVEGF121 = molecular target: T2, wild-type hVEGF121; test: sandwich ELISA, antibody coated 5 ug/ml
Description: as §1

hVEGF121-M81A = molecular target: T3, hVEGF121-M81A; test: sandwich ELISA, antibody coated 5 ug/ml
Description: as §1

hVEGF121-G88S = molecular target: T4, hVEGF121-G88S; test: sandwich ELISA, antibody coated 5 ug/ml
Description: as §1

hVEGF121-Q89A = molecular target: T5, hVEGF121-Q89A; test: sandwich ELISA, antibody coated 5 ug/ml
Description: as §1

[6] = molecular target: T6, murine VEGF165 (mVEGF165); test: sandwich ELISA, antibody coated 5 ug/ml; sandwich ELISA, Ab coated at 5 ug/ml, murine VEGF165 at 1 ug/ml; signal at background, i.e. no binding
Description: as §1

human VEGF165 (hVEGF165) [7] = molecular target: T7, human VEGF165 (hVEGF165); test: cell-based or functional assay; remark: listed apart in the source

Binder	percent inhibition of hVEGF165 binding to receptor (human VEGF165 (hVEGF165) [1]) [%]	off-rate relative to Bevacizumab (human VEGF165 (hVEGF165) [2]) [fold]	Inhibition of HUVEC proliferation, HEK 293 hVEGF165, EC50 (human VEGF165 (hVEGF165) [3]) [µg/mL]	Kd (human VEGF165 (hVEGF165) [4]) [nM]	fold over background (hVEGF121-G92A) [fold]	fold over background (human VEGF165 (hVEGF165) [5]) [fold]	fold over background (wild-type hVEGF121) [fold]	fold over background (hVEGF121-M81A) [fold]	fold over background (hVEGF121-G88S) [fold]	fold over background (hVEGF121-Q89A) [fold]	fold over background [6] [fold]	IC50 (human VEGF165 (hVEGF165) [7]) [µg/mL]
B1	> 60	–	–	–	–	–	–	–	–	–	–	–
B2	–	~2	0.66	1.5	22.8	23	29.1	9.5	0.9	3.5	0.7	–
B3	–	–	–	–	–	–	–	–	–	–	–	0.41
B4	> 60	–	–	–	–	–	–	–	–	–	–	–
B5	–	~2	0.68	1.7	30.5	29.2	31.8	13.4	1	3.3	1.1	–
B6	–	–	–	–	–	–	–	–	–	–	–	> 1
